Molecular target: GoxA (glycine oxidase) from Pseudoalteromonas luteoviolacea, glycine-soaked (Gly-GoxA) (Pseudoalteromonas luteoviolacea)
Assay: crystal structure

Work on “GoxA (glycine oxidase) from Pseudoalteromonas luteoviolacea, glycine-soaked (Gly-GoxA) (enzyme)” yielded a stoichiometry N of 4.

Reference: publication PMC6381839
